Results: publication PMC1888729

T1: His-tagged U2AF35 (HEK-293E), Q01081
T1 chain: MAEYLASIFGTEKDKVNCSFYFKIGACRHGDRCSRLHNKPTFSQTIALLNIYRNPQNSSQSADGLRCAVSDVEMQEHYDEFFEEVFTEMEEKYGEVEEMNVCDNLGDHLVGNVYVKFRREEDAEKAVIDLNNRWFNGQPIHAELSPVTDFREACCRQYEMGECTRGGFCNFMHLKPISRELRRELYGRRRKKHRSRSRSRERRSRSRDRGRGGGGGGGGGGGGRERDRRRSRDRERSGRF

T2: U2AF35 (recombinant human, baculovirus-infected SF9 cells) (human), Q01081
T2 chain: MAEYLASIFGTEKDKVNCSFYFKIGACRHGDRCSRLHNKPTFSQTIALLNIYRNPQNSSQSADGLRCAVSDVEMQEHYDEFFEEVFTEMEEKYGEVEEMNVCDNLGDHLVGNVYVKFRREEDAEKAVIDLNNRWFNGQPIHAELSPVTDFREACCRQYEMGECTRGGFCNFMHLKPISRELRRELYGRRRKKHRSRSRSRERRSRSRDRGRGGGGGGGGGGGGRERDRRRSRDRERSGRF


How the values were obtained:
[1] = molecular target: T1, His-tagged U2AF35 (HEK-293E), Q01081; assay: pull-down; His-tagged U2AF35 expressed in 293E cells, lysate (50 mM Tris-HCl pH 8, 1% NP-40, 5 mM imidazole) on Ni-NTA agarose 1 h at 4°C, wash 0.5 M NaCl, eluted with 0.5 M imidazole; western blot; amounts by Coomassie stain against BSA; conditions: remark: other sources report otherwise
[2] = molecular target: T2, U2AF35 (recombinant human, …); assay: co-purification; human U2AF65/35 heterodimer purified from baculovirus-infected SF9 cells as described previously; conditions: remark: other sources report otherwise

Row | Binder | stoichiometry N (U2AF35 per U2AF65) [1] | stoichiometry N (U2AF35 per U2AF65) [2]
1 | U2AF65 (co-purified from HEK-293E), P26368 1-475 (natural protein) MSDFDEFERQLNENKQERDKENRHRKRSHSRSRSRDRKRRSRSRDRRNRDQRSASRDRRRRSKPLTRGAKEEHGGLIRSPRHEKKKKVRKYWDVPPPGFEHITPMQYKAMQAAGQIPATALLPTMTPDGLAVTPTPVPVVGSQMTRQARRLYVGNIPFGITEEAMMDFFNAQMRLGGLTQAPGNPVLAVQINQDKNFAFLEFRSVDETTQAMAFDGIIFQGQSLKIRRPHDYQPLPGMSENPSVYVPGVVSTVVPDSAHKLFIGGLPNYLNDDQVKELLTSFGPLKAFNLVKDSATGLSKGYAFCEYVDINVTDQAIAGLNGMQLGDKKLLVQRASVGAKNATLVSPPSTINQTPVTLQVPGLMSSQVQMGGHPTEVLCLMNMVLPEELLDDEEYEEIVEDVRDECSKYGLVKSIEIPRPVDGVEVPGCGKIFVEFTSVFDCQKAMQGLTGRKFANRVVVTKYCDPDSYHRRDFW | 3.5 | –
2 | U2AF65 (recombinant human, baculovirus-infected SF9 cells), P26368 1-475 (natural protein) MSDFDEFERQLNENKQERDKENRHRKRSHSRSRSRDRKRRSRSRDRRNRDQRSASRDRRRRSKPLTRGAKEEHGGLIRSPRHEKKKKVRKYWDVPPPGFEHITPMQYKAMQAAGQIPATALLPTMTPDGLAVTPTPVPVVGSQMTRQARRLYVGNIPFGITEEAMMDFFNAQMRLGGLTQAPGNPVLAVQINQDKNFAFLEFRSVDETTQAMAFDGIIFQGQSLKIRRPHDYQPLPGMSENPSVYVPGVVSTVVPDSAHKLFIGGLPNYLNDDQVKELLTSFGPLKAFNLVKDSATGLSKGYAFCEYVDINVTDQAIAGLNGMQLGDKKLLVQRASVGAKNATLVSPPSTINQTPVTLQVPGLMSSQVQMGGHPTEVLCLMNMVLPEELLDDEEYEEIVEDVRDECSKYGLVKSIEIPRPVDGVEVPGCGKIFVEFTSVFDCQKAMQGLTGRKFANRVVVTKYCDPDSYHRRDFW | – | 1
